B1: TPR t1 (parent)
chain: GACCAAUCUGCCCUCAGAGCUCGAGAACAUCUUCGGAUGCAGAGGAGGCAGGCUUCGGUGGCGCGAUAGCGCCAACGUCCUCAACCUCCAAUGCAUCCCACCACAUGAUGAUGCCUGAAGAGCCUUGGUUUUUUG

Variants of: B1
Assay: polymerase ribozyme fitness, log enrichment relative to wild type (log ratio); higher = more active; in vitro selection for triplet polymerase activity
Outline: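 Streptavidin-bead capture of gel-excised extended constructs, followed by RT-PCR, closed a single triplicate in vitro selection round. That round began by annealing PCR-built, transcribed mutant libraries of each subunit of a heterodimeric triplet polymerase ribozyme with a biotinylated primer, the partner subunit and triplets, then incubating them frozen at −7 °C. After Illumina sequencing of inputs and outputs, genotypes needed ≥10 input reads and ≥1 read per output. Fitness is the base-2 logarithm of genotype enrichment over wild-type enrichment, using inverse-variance-weighted replicate averages.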

Compared with C12U G17U A50G G63U, C12U C70U C94U is higher in “polymerase ribozyme fitness (log ratio)” value: -3.39 for the first, 0.056 for the second.

First: C12U A66U C123A
Second: C12U C34A U106A U112C G120C C124G G128A
The “polymerase ribozyme fitness (log ratio)” value of the first is higher: 0.936 for the first, -5.07 for the second.

Going from C12G U78C U125A to C12U C72G A103G C124A, the “polymerase ribozyme fitness (log ratio)” value falls from -0.607 to -5.75.

Going from C12U A29G A50U A91G to C12U G36C A46U U112C G127U, the “polymerase ribozyme fitness (log ratio)” value rises from -3.08 to 0.627.

Going from C12U C85U A95C to C12U G42A G61A G110A, the “polymerase ribozyme fitness (log ratio)” value falls from -1.78 to -4.38.

Going from C12G U30G C72G C101A U106A A119U C123U to C12U G35A, the “polymerase ribozyme fitness (log ratio)” value rises from -5.26 to -3.06.

First: C12U C104G
Second: C12U A50U C115U
The “polymerase ribozyme fitness (log ratio)” value of the first is lower: -4.58 for the first, -3.47 for the second.

Compared with C12U C72U A83U C99U, C12U C114A is higher in “polymerase ribozyme fitness (log ratio)” value: -3.62 for the first, -1.12 for the second.

Compared with C12G G36C C114A G120A, C12U G36U C104U C123G is higher in “polymerase ribozyme fitness (log ratio)” value: -2.67 for the first, 0.937 for the second.

First: C12U A121G
Second: C12U A121U
The “polymerase ribozyme fitness (log ratio)” value of the first is lower: 1.82 for the first, 2.4 for the second.

Going from C12G U21A C31U G60C U87C A95G G120U U133A to C12U C40G A50G C64G A103U U112C C115A A118G G127U, the “polymerase ribozyme fitness (log ratio)” value falls from -4.31 to -5.71.

Compared with C12U C62A U81G C115A, C12U C53U C124U is higher in “polymerase ribozyme fitness (log ratio)” value: -2.91 for the first, 1.56 for the second.

Compared with C12U C56U G60U, C12U C86A C98U is higher in “polymerase ribozyme fitness (log ratio)” value: -4.18 for the first, -0.708 for the second.

First: C12U C28U C53G U129A U130C
Second: C12G G39A C82G C114U
The “polymerase ribozyme fitness (log ratio)” value of the first is higher: -2.76 for the first, -3.7 for the second.

Going from C12G G63U A66U G120U G127U to C12G U87C, the “polymerase ribozyme fitness (log ratio)” value rises from -0.34 to 0.621.

Going from C12U C20A C22G U112A to C12G G45U C101U A118U, the “polymerase ribozyme fitness (log ratio)” value rises from -3.37 to -0.398.

Compared with C12U C102U, C12U A37C A46U C62A is lower in “polymerase ribozyme fitness (log ratio)” value: -1.83 for the first, -2.96 for the second.

Going from C12U A26U C34A G63A A90C C104U G113C to C12U A83C C114A C123G C124G, the “polymerase ribozyme fitness (log ratio)” value rises from -6.57 to -0.26.

Going from C12U G25C C94G G113A to C12U C15A G52A, the “polymerase ribozyme fitness (log ratio)” value rises from -6.74 to -0.639.

Going from C12U C49A C73U U92C to C12G G44A G63A U112G G122U G135U, the “polymerase ribozyme fitness (log ratio)” value falls from -1 to -2.91.

Compared with C12U C13G A37U U54G C73U C123U, C12U A46U C53U C79A A83U U130A is lower in “polymerase ribozyme fitness (log ratio)” value: 1.09 for the first, -4.07 for the second.

First: C12G U116A
Second: C12U C88A
The “polymerase ribozyme fitness (log ratio)” value of the first is lower: -3.29 for the first, -0.264 for the second.

First: C12U C88U
Second: C12U A24G G36A G63A
The “polymerase ribozyme fitness (log ratio)” value of the first is higher: 0.381 for the first, -2.54 for the second.

First: C12U C72A C85A C94G A111C A119G U125A U133G
Second: C12G C102U A119G C124U U125A
The “polymerase ribozyme fitness (log ratio)” value of the first is lower: -4.02 for the first, -0.278 for the second.

Compared with C12U A18G G19C A37U A118U A121G, C12G G69C C82U C98U A119G is higher in “polymerase ribozyme fitness (log ratio)” value: -1.65 for the first, -0.598 for the second.

First: C12G C73U
Second: C12G C73A
The “polymerase ribozyme fitness (log ratio)” value of the first is lower: -0.295 for the first, 0.691 for the second.

Going from C12U C86G to C12U C53G C82U G128A, the “polymerase ribozyme fitness (log ratio)” value falls from -0.52 to -1.97.

Going from C12U C40U C104A to C12U C15U C72A A121U, the “polymerase ribozyme fitness (log ratio)” value rises from -2.12 to 1.3.

First: C12U A41G
Second: C12G C94U
The “polymerase ribozyme fitness (log ratio)” value of the first is higher: 0.638 for the first, -0.437 for the second.

First: C12G U30C
Second: C12G G47U C64U
The “polymerase ribozyme fitness (log ratio)” value of the first is lower: -2.82 for the first, -1.58 for the second.

Compared with C12U A29G, C12U A29U is lower in “polymerase ribozyme fitness (log ratio)” value: -1.25 for the first, -2.12 for the second.

First: C12G U32G
Second: C12G U32A
The “polymerase ribozyme fitness (log ratio)” value of the first is lower: -6.87 for the first, -3.25 for the second.

Going from C12G C101G C102G G110C to C12U C88A A95U C104A, the “polymerase ribozyme fitness (log ratio)” value rises from -5.71 to -3.44.

First: C12U A50U U59G G63A A119U
Second: C12U C70A
The “polymerase ribozyme fitness (log ratio)” value of the first is lower: -2.52 for the first, -0.649 for the second.

First: C12U C70G
Second: C12U C70U
The “polymerase ribozyme fitness (log ratio)” value of the first is lower: -2.05 for the first, 0.3 for the second.

Compared with C12U A24G G36A, C12U C20G A83C C98U A121U is lower in “polymerase ribozyme fitness (log ratio)” value: -1.4 for the first, -4.1 for the second.

Compared with C12U C20U A46U U54C C56A U87G A91U, C12U C13G is higher in “polymerase ribozyme fitness (log ratio)” value: -3.03 for the first, -0.258 for the second.

Compared with C12U C49A C115U, C12G G52A G61C C88U G120U is lower in “polymerase ribozyme fitness (log ratio)” value: -1.47 for the first, -3.61 for the second.

Going from C12G U55A C56G G63A U81C to C12U C22G G45A C94U C99U, the “polymerase ribozyme fitness (log ratio)” value falls from -2.01 to -4.27.

C12U A66U U78A U87C and C12U C15A are within 0.2 log units of each other in “polymerase ribozyme fitness (log ratio)” value: -0.338 for the first, -0.528 for the second.

Going from C12U C72U C86U U112C to C12U C56U G58A G71U U112C G122A, the “polymerase ribozyme fitness (log ratio)” value falls from 1.05 to 0.796.

In the case of C12U C15U U21G C101A, the “polymerase ribozyme fitness (log ratio)” value is reported as -3.11.

Reference: the RNAGym collection of RNA variant scans (doi:10.1073/pnas.2313332121)
